Patent US20220135701A1 (Genentech, published 2022)

Assays:
[1] = biological target: T1, mouse MerTK on mouse macrophages (mouse, UniProt Q60805 19-994); test: cell-based or functional assay
T1 sequence (looked up): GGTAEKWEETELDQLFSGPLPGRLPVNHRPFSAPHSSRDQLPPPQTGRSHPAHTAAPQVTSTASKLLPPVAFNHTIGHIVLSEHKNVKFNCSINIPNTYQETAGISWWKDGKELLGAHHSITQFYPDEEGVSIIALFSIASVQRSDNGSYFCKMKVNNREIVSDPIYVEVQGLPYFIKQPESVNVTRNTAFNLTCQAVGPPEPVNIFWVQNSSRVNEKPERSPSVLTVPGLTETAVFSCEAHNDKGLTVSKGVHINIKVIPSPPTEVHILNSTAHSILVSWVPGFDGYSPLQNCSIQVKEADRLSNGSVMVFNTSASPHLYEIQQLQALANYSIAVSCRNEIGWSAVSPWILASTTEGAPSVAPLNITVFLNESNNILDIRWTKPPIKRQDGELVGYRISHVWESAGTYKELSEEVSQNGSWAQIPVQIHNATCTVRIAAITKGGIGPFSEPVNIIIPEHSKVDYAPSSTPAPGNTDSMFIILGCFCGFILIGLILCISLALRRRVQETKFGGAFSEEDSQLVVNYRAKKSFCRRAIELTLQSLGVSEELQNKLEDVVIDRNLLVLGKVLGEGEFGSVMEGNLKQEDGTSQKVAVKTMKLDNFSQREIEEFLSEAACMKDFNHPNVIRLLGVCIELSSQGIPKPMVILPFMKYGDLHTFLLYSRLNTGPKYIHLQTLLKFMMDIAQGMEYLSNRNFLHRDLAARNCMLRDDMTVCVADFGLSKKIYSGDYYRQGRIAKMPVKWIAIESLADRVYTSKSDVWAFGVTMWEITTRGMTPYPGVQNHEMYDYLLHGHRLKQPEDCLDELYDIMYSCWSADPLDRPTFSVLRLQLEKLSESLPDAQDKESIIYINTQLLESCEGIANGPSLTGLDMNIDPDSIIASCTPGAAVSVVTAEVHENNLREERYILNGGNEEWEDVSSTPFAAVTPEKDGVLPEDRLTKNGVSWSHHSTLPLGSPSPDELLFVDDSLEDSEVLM

human MerTK = biological target: T2, human MerTK (human, UniProt Q12866 26-499); test: SPR BIAcore T200, Ab captured, 37C
T2 construct: also called HuMER
T2 sequence: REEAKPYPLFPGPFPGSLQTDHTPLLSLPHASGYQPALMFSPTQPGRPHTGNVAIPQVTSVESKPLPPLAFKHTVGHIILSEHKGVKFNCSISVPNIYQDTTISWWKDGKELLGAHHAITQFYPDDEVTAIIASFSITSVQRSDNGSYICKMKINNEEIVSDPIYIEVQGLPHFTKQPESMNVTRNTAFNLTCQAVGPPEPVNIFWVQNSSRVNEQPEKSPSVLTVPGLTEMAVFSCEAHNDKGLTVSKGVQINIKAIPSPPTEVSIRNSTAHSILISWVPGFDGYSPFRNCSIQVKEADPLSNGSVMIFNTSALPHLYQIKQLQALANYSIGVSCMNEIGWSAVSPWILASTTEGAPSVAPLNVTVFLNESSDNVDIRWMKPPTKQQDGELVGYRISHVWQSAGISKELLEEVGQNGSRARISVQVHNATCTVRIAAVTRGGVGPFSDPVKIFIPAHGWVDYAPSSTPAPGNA
Experimental: (§1) Each rabbit and humanized antibody was subjected to a binding assay to determine its affinity to MerTK derived from various species.
(§2) All binding affinity determinations were obtained using Surface Plasmon Resonance (SPR) measurements from a BIAcore™-T200 instrument. Briefly, each rabbit or humanized antibody was captured to achieve approximately 100 RU (Response Units). Then, 3-fold serial dilutions of MerTK from various species (0.4 nM to 100 nM) diluted in HBS-EP buffer (0.01M HEPES pH 7.4, 0.15M NaCl, 3 mM EDTA and 0.05% v/v surfactant P20) was injected into the BIAcore™-T200 instrument at 25° C. or 37° C. with a flow rate of 30 μl/min. Association rates (kₒₙ) and dissociation rates (koff) were calculated using a simple one-to-one Langmuir binding model (BIAcore T200 evaluation software version 2.0). The equilibrium dissociation constant (KD) was calculated as the ratio koff/kₒₙ.

mouse MerTK = biological target: T3, mouse MerTK (mouse, UniProt Q60805 23-496); test: SPR BIAcore T200, Ab captured, 37C
T3 construct: also called MuMER
T3 sequence (looked up): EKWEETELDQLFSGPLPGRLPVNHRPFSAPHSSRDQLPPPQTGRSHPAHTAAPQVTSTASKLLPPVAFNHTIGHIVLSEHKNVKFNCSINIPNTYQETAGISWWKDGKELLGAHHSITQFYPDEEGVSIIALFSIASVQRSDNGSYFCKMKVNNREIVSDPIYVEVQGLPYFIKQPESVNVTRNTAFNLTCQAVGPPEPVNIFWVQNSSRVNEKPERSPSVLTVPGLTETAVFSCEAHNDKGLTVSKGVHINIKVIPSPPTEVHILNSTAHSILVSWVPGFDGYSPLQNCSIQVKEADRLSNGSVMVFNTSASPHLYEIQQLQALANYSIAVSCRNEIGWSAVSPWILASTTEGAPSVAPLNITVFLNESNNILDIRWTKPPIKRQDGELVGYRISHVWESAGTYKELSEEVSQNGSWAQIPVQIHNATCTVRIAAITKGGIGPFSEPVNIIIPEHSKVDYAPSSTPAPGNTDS
Experimental: as §1, §2

B1: h10F7.v16 (antibody, V domains shown)
VH: EVQLVESGGGLVQPGGSLRLSCAVSGFSLSGYAMSWVRQAPGKGLEYIGVISSSGSSYYPSWAKGRFTISKDNSKNTLYLQMGSLRAEDMAVYYCARVQFYVGYAVYGYGIIDRLDLWGQGTLVTVSS
VL: DIVLTQSPDSLAVSLGERATINCQSSKSVYNNNWLSWYQQKPGQPPKLLIYRASTLESGVPDRFSGSGSGTDFTLTISSLQAEDVAVYFCAGGYSSSSSANAFGGGTKVEIK
notes: Humanized, human IgG1; also called 10F7 Fully Humanized; 10F7 Humanized polished mAb
IC50 (nM), efferocytosis by mouse macrophages, Average [1]: 0.91 nM | Kd (human MerTK): 4.9 nM | Kd (mouse MerTK): 1.4 nM
